{
  "source": "patent US20210290676A1",
  "about": "“IMPROVING THE EFFICACY AND SAFETY OF ADOPTIVE CELLULAR THERAPIES” (University of Southern California, priority 2018, published 2021)",
  "assay": "Leukapheresis with and without mobilization and manufacturing of CAR-T/TCR-T cells from cancer patients",
  "format": "in vivo, human",
  "conditions": "mobilization prior to leukapheresis",
  "procedure": "A study is conducted to compare the generation of cell therapy products from cancer patients who have received 2 or more cycles of prior chemotherapy. Patients with different types of different cancers (e.g., diffuse large B cell lymphoma, acute B-ALL, CLL, multiple myeloma, breast cancer, ovarian cancer, lung cancer etc.) are eligible. Leukapheresis products are collected from the subjects with and without mobilization with Perixafor (0.24 mg/kg subcutaneously daily on days 1-3). T cells are isolated and used for manufacturing of CAR-T and TCR-T cells using lentiviral mediated gene transduction as described in the preceding sections.",
  "data": [
    {"molecule": "G-CSF: cytokine, G-CSF (filgrastim, Amgen) (protein, chains of the INN, looked up) MTPLGPASSLPQSFLLKCLEQVRKIQGDGAALQEKLCATYKLCHPEELVLLGHSLGIPWAPLSSCPSQALQLAGCLSQLHSGLFLYQGLLQALEGISPELGPTLDTLQLDVADFATTIWQQMEELGMAPALQPTQGAMPAFASAFQRRAGGVLVASHLQSFLEVSYRVLRHLAQP", "values": [
      {"measurement": "yield of leukapheresis product for generation of CAR-T cells", "value": "improve the yield"}
    ]}
  ]
}
